Measured values published in a protein production outcome set (Wang et al. 2014).

Assay: label from the status in PepcDB records
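Also: failed if final PepcDB status was selected cloned or expressed and not failed if soluble or beyond.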

Sequence | protein production
MIGLSFVSLLTIVCAALGCAVLTWALMPLLIRYALARPNARSSHKVPTPQGAGIAVVAATLAVTALAVGPTTPAFLGLIPLFVAAIVIGIVGAVDDIRPIPVLPRFALQALCVGAVVLTLPSDQQIIPALPLWLERAALLIGGLWFINLVNFMDGLDWMTVAEGLPVTAALLVFGLLGALTQSPMLLAAALGGALLGFAPFNRPGAARVFLGDVGSLPIGLLLGWCLLQLALQGHVAATLLLPLYYLADSTLTLLRRMMRREPFWLAHRSHFYQRATDNGFSVREVVGLVCLTNLALAALAGVSIALNSVAADGLLLAVGAAIVAALLMRFADRKA | failed
MAVDDSEEGKPAESEAPLDLLQDWEHARAHAVPFSDSLLTECILVDQECVTNTKIKQEVNASSGCNTTPDSNTQDSDKIDYIESMDVCSNVEIESTEDSIVTGLNSGNAEDVDMTPGWRRKRNQKSKKSYIGTKDVLDQTLDKDIPLNKQNRRFPITARPVKRECVKKYERETFENGNERVYSTSSPRGRVYLLNDAAKL | failed
MGEGGEMGVGIFQIDMDWLHRWLRHRRGPGSGKTSGNRNLKPRLTPAAAQQDHRQMLCFMTLNAAVGVLIGICVGAALIFLDIGGLGARIGRAASPFVPVLLVVVPIASLFGAAAAASAILLMPYEKKFRDDDDDARGE | failed
VTDVLLCVGNSMMGDDGAGPLLAEKCAAAPKGNWVVIDGGSAPENDIVAIRELRPTRLLIVDATDMGLNPGEIRIIDPDDIAEMFMMTTHNMPLNYLIDQLKEDIGEVIFLGIQPDIVGFYYPMTQPIKDAVETVYQRLEGWEGNGGFAQLAVEEE | not failed
INQQEDSSESCWNCGRKASETCSGCNTARYCGSFCQHKDWEKHHHIC | not failed
MAKNTFTPELLEKHFTKNEWKKGARIFQANGVKTCALDGEVIRGVVFSERSRESSYLTRLVFDGKFGDIASYCDCYVGRDCKHGSALAQCYIHEHFDRNSIATSETIIDKWLNRFQAQPTRYQPNTQQKSLLYFLKPNPYNEDDFLTLGIKSARPKNSGGWNSSIGSEYSASSLINSAYANDEDVAVLTELMRTNQYGDTIKYFDLFERIIKTNRSFWHTTYDLSEPVTLSEPLEAEWQWLALGNSLHTLKLVLMQPSESIRIIKAQPLCFYDEEKNCFGKINTNTQCDFEAGLLNSPIFEEDKLPWIMSKLSMSLGDAVKRLPKPKTKYSQELTQPDVYLHFTTPVASNRQTGYVQVNFSYQGNLVNPHDENVTITPSNVTKLSIDSDAQSDADSNIESGAYSNIEDEVERENVSPREIKIYRDLAFEQTVIDKLTTLKFNPQPKPKRYTYTSQDDLNKSKTPEFAMLMQGSVLWQRFLHQELSPLEDLGWHITFADDFYYKALSTDSVFDAEVMETDDHDFFSLGLNLTIDGKKMPAFPILLSAIEQLPRSALLDREKEDLISPDSPIYVDLDNGGFVALRYQSVQPILKQFIELFMPNALSHDGTIELSRFQGHQTLSMLDDQGMIAKGTSKLRALADKLKDFQQVTTIPVPEGLNATLRTYQHQGLNWLQFLREYQLNGILADDMGLGKTIQTLAHLLIEKQQGRLTKPILIVAPTSVIFNWANEIDKFTPQLSYQVLHGNKRHEQFGCLEGVENGENQVDIIITSYALITKDLAHYTDRKFYYLVLDEAHYIKNTKTKLYQAFLTLKAQHKLCLTGTPMENHLGEFWAQFNFLLPGFLGGQRQFTKLFRTPIEKHGELERKQLLNQRIKPFILRRTKDKIATELPPKTEIIQTLRIEGKQAELYESVRLAMDSRLKDIIADKGLKRSQIEVLDALLKLRQVCNHPKLLKLEGAKKVNQSAKLDYLMETLPEQIDEGRKILIFSQFTSMLSLIEDELIDAGIGYVKLTGSTTKRQEVVDKFQRGEVPVFLISLRAGGVGLNLTAADTVIHFDPWWNPAVENQATDRAYRIGQNKPVFVYKLIIENSIEEKIQKIQQNKAELAKALLSEEVSDNKLSLTDDILDSLLTPLS | failed
MTPVCAWIGSPGAKAQLSFAGRGHSTAKRRRGPAGEPAVPGEALPGARGSLKAHPKPWAAAMWARGCLHHIRVWFSWSQQGSGNGRSGWERLAREARGLWQLWCLPGTPNSSPLQTDM | failed
MQVRAVFFARLRREVGLEELTLDVPDGADVRAVAEHLEQERGVSLRGCMVAVNETYASPEHLLREGDEVAFLPPVAGGAPEDEADADTHCRVTADPLSLSEADAFLVKPEYGAQAYFMGTVRSPNQGQVVEYIDYEAFAPMAEKVMREAAALARERHGELRVWIEHRTGRLTPAVASIVIGVASPHRRPALEACDFLIEHLKIELPIWKHEADGRGEHWVKGTTGHDTL | failed
MNDRMDPPPPRIEDILPHRGSMLLLAHVDTWDDETLRASAHVDPTAWYADPEGAMPAWFGIELMAQAIAAHVGLLSMREGNPARPGVLLGSRKYEAHAPAFAPAQPLSIAVQEVLRSTEGHGAYACTIAAGGRDLAQAVIKVYQPTDFQAFIEGSFAS | failed
AIASERLYYFVIVGRDDRVLYDLLYPASLSELDWRTSSELSSPAERGDFEPHHFIPSIQVLLQFVAYSALDHIEEKYWLTSARSLKHIFRFRDWSASVQLTPNAATRFVLVHGASDDASRNVRAFLHAVYEAYVPHVVCNPFQEEDAPITSKRFHEVAKNLAKRYFSG | failed
MRVLFIGDVFGQPGRRVLQNHLPTIRPQFDFVIVNMENSAGGFGMHRDAARGALEAGAGCLTLGNHAWHHKDIYPMLSEDTYPIVRPLNYADPGTPGVGWRTFDVNGEKLTVVNLLGRVFMEAVDNPFRTMDALLERDDLGTVFVDFHAEATSEKEAMGWHLAGRVAAVIGTHTHVPTADTRILKGGTAYQTDAGFTGPHDSIIGSAIEGPLQRFLTERPHRYGVAEGRAELNGVALHFEGGKATAAERYRFIED | not failed
MTTPRPEYPRPHFDRSHSWLTLNGTWDFRADPAEAYSADASDGYDRAITVPFAWETPASGIAEHWLRTAWYRRTFTVPADWAGQRVVLHFGAVHHAATVWVNGTEVAHHEGGYTPFAADVTDALGDGEHQLTVRVHAPADKRDIAHGKQRSMPRDDYDGVCFTPSSGIWQSVWLEARPATHLAALRLRPNDDLTGITVEAVVHGPAADRAELRLRVRDEDTAVTATLDPDGRLATELPLSAPRLWSPEDPHLYHVDAELTSADGTDRVAAYTGLRTVTVDGESLYLNGRRLFVRGVLDQGYWPETGITAPDDAALRRDIELAAEAGYNLVRKHLKLEDPRFAHHADTLGMLLWAEPASPGRFSPASTAAFAEQIEPMVERDGNSPAIVIWGLYNEEWGLDWDIPGDPAKQRATADAYDRLKALDPTRPVVDNSGWTHVKTDLLDWHYYDESAASWATTVADLLSGERDDFPVKLGPDFVVRKKLAVPGQPLRGLPNLNSEYGGGFTGLDRAWHLRWQTQELRRHDRLAGYVYTELYDIEHESAGLLDFGRGAKDLAGVDPAHANAPTTLVLDVTPVAPGRDLLTTGPDFTVDVHVSHHGDDPVAGTVHTTWTPVYARTPDAPGDAVPGCRAEAKPYVLGAAVTVPAALPDGWTSGRLHLALVVDGTVAARTALDVDTRTDPYIGDDPQARPTA | failed
MGLGRYLPYLLSAALLLLCGCERTDTHAQPAKENGEIKVAPYGSWQSPLSAADVFKQTDDIAELQSVGNAIYFAESSGRDQGKVGIKRLDGLGKVTQVVLPDFNVKSTVHEYGGAAFLGIGKSLFATKMQDQLFYRFAPNQPPLPLTPNGTRHADCVAYPKGSRIICVREDHRQGGEPKASLVTINLNFAGEGDTFVSGHDFISSPTISPDNTQLAWITWEHPYMPWDNSVLWLGELDRKGQLKNVRKVSTPEASSVAQPLFGPDGKLYVVSDISNWWNIYRVTPSYTLEPVLSKNAEFAVPDWRLGNHNYAFENATTLIASYVEGNRAALLRIHLDSELTESLAIDFAEITQVVKGEDGVYFVGAKATPEKGIYRVVGRGTELVYAPALANLNPNYVSRAINIAFATGKDQQAYGYFYGPVNPKYVPPHDTRPPLIVMLHGGPTSRASLAYRSEIQFWTSRGFAVLDLNFRGSSGFGRAYRQSLYGKWGESDVEDAVNAAKYLVAKGWVDANKLAIRGISAGGLTVMSSLAFYNVFQAGVSYEGISDVEQLAKSTHKFESGYLDQLIGPYPENTDRYRELSPLNHLDGLNEPLLIFQSLRNKIVPTSQSRQIYDALKAKGVPTAYIDYGDDSDEGRTPEHKAAGLETELAFYGQVFKFTPAGKLPPLILDNISALTP | failed
MSTPLTLIATITAAPGHAEALERELRALVAPSRAEAGCLQYDLHQDRHDSHLFYMIEQWRDDAALERHQNTEHFLRFSRGNEALLQNVKIDQLYRLA | not failed
ALRERSEGLVLIGRRHLRSNNSWLHNVPALTGGTNRCTLHIHPEDAERLGLTDGAPVRVRGAGGAVTAPVEVTDGIRRGVVSLPHGWGHDRPGTRMSHAALDPGVNVNQLLDGSLLDPLSGNAVLNGVPVELTRT | failed
MGYCIIIPAYNAARTLPAVVREVLGLGMPCLVVDDGSTDGTSATVEGLGVHLLRHDGNRGKGAALRTGFEWALAHGYSGVVTLDADGQHDPTAIPLLAATARERNVDILIASRDTQFREMAGLRSVWNRFGVWCMRKRTGFTITDSQSGFRWYSARLLKGVSLEASGYHLEMEILMKAWRGGFAIDSLPVAARVADGRATSHFRPVRDTWNICMTFLRHMLEHHHHHH | not failed
MALEIKILDYGDIELESSFLVLGRDCGRTRRVLTLGFLILGGKYPVVVDTGYRSNQIMETLGMRGLQYHEHMIENQLARHGVRMGDVRFVCHTHLHIDHAGKDDLFPMNTTVVLNRKELEYSVSGLMHPQYPAPDIKHLIDRLHTKSALRFLDLEITGPIELMPGVYCDAANAHTEGSMNIIVETADGIATICGDVIYDFNDQIVTPFNEIHDWEPRTTGNHGTSKRAEKASIKKLLSNSRYLLPVHDRPAKIEGGMVVGRLHDQVPGPIVQSLPPRNWFPA | failed
MNRHISFERLHNFRDLGGYTTADGRVVRWGRLFRSDSLGKLTGEEWERFLALGIGTVIDLRYPWEIDAKGRVPEHPAFTYHNLSIEHRPYDQAGLGPDVETGPFLAEKYMEVAHDGVKELRQVVEVIAAVATSTDESVVFHCASGKDRTGLVAALVLALLGVPESQIVEDFTLTELATERLLADWRADHPGQEPTWPGYGRAPADVMRLFLDALTHQHGSMADYARDLLRIDEGLIAALRRNLLEPAAEPELTFRRADHRDLPELVRLRDSAARWQIARGIDQWKPGQLGEDHFRARLADGEIWIATLGPTGPTAGAWELWWDDPAAWGPQPPSAGYVHRLMTDRRTAPPGTGRLMLAEAERRIAETGRTLCRLDCLASNPRLRQYYETAGYTVVGEQSSKDGGLGNTYAVTLLEKTVPEALTPRSTKPAR | failed
MIENSSPYTSEHFHYTVTDIKDLTKLGAIYDKTKKYWVYQGKPVMPDQFTFELLDFLHQLTHLSFSKMKALLERSHSPYYMLNRDRTLKNITETCKACAQVNASKSLEHHHHHH | not failed
MIMIDLSLIWIVIIAVGVFIYIVLDGFDLGIGILFPFIKDQHERDVMMNTVAPVWDGNETWMVLGGAGLFAAFPMVYSAVLSALYLPIILMVIALIFRGVAFEFRFKANRTKHLWDAAFIGGSIISSFLQGVILGAYIQGIHIVDGRYAGGGLDWLTPFSLFTGVGVVVVYAALGCGWLIMKTDHRLQLNMYSLMPKLMYALLIIFVCVSIYTPLSQPQIAARWFTQPQLTYFSPVPILVVIFTFLTVRACSKRQESMPFLYTLALVFLAYTGFLISIFPYIIPPSVTIWDAAAPANSQLFALIGALILIPIIIMYTIMAYWVFRDKVRVGDEGYH | failed
MMKRALTGIQASGKQHLGNYLGVMQSLIELQEQCQLFVFVADLHSITVDFQPQALKQNNFDLVRTLLAVGLDPQKACLFLQSDLLEHSMMGYLMMVQSNLGELQRMTQFKAKKAEQTRNPNGTLNIPTGLLTYPALMAGDILLYQPDIVPVGNDQKQHLELTRDLAQRIQKKFKLKLRLPQFVQNKDTNRIMDLFDPTKKMSKSSKNQNGVIYLDDPKEVVVKKIRQATTDSFNKIRFAPKTQPGVTNMLTILKALLKEPVNQSLTNQLGNDLEAYFSTKSYLDLKNALTEATVNLLVNIQRKREQISREQVFNCLQAGKNQAQATARTTLALFYDGFGLGSQNIK | not failed
